Target: the molecule itself
Test: crystal structure; FtPPDK 10 mg/mL co-crystallized with 20 mM PEP and 10 mM NADH, microbatch, 17% PEG 3350, 100 mM MOPS pH 7, 100 mM magnesium formate, 21 °C; PDB 5JVJ, two monomers in the ASU

B1: Pyruvate phosphate dikinase from Flaveria trinervia (C4-isoform) (enzyme, UniProt P22221 78-953, looked up)
chain: TAKKRVFTFGKGRSEGNRDMKSLLGGKGANLAEMSSIGLSVPPGLTISTEACEEYQQNGKSLPPGLWDEISEGLDYVQKEMSASLGDPSKPLLLSVRSGAAISMPGMMDTVLNLGLNDEVVAGLAGKSGARFAYDSYRRFLDMFGNVVMGIPHSLFDEKLEQMKAEKGIHLDTDLTAADLKDLVEKYKNVYVEAKGEKFPTDPKKQLELAVNAVFDSWDSPRANKYRSINQITGLKGTAVNIQSMVFGNMGNTSGTGVLFTRNPSTGEKKLYGEFLINAQGEDVVAGIRTPEDLGTMETCMPEAYKELVENCEILERHYKDMMDIEFTVQENRLWMLQCRTGKRTGKGAVRIAVDMVNEGLIDTRTAIKRVETQHLDQLLHPQFEDPSAYKSHVVATGLPASPGAAVGQVCFSAEDAETWHAQGKSAILVRTETSPEDVGGMHAAAGILTARGGMTSHAAVVARGWGKCCVSGCADIRVNDDMKIFTIGDRVIKEGDWLSLNGTTGEVILGKQLLAPPAMSNDLEIFMSWADQARRLKVMANADTPNDALTARNNGAQGIGLCRTEHMFFASDERIKAVRKMIMAVTPEQRKVALDLLLPYQRSDFEGIFRAMDGLPVTIRLLDPPLHEFLPEGDLEHIVNELAVDTGMSADEIYSKIENLSEVNPMLGFRGCRLGISYPELTEMQVRAIFQAAVSMTNQGVTVIPEIMVPLVGTPQELRHQISVIRGVAANVFAEMGVTLEYKVGTMIEIPRAALIAEEIGKEADFFSFGTNDLTQMTFGYSRDDVGKFLQIYLAQGILQHDPFEVIDQKGVGQLIKMATEKGRAANPSLKVGICGEHGGEPSSVAFFDGVGLDYVSCSPFRVPIARLAAAQVIV
notes: domains NBD aa 1-340, CD aa 380-515, PBD aa 535-874; Cloned into pET-16b with a histidine10 tag and a TEV site; Co-crystallized with PEP and NADH (5JVJ) or PEP and 2'-Br-dAppNHp (5JVL); also called FtPPDK; C4-PPDK
binding result: binds

Source: paper PMC5371819, “Structural intermediates and directionality of the swiveling motion of Pyruvate Phosphate Dikinase” (Scientific Reports, 2017)
